Laboratory results from the supplement of paper PMC10567573.
± gives the standard deviation.

Test: protein stability index of a GFP-peptide fusion (GPS, HEK-293T) (PSI 1-6); higher = more stable
Settings: c terminus: a fixed tail appended
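Also: 24-mer peptide tiles fused after GFP, lentivirally expressed, FACS-sorted into six equal bins by GFP/DsRed ratio, decoded by Illumina sequencing, PSI is the read-weighted mean bin number.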

Sequence	protein stability index (treatment: DMSO)	protein stability index (treatment: MLN4924 1 uM, 8 h)
EFEQFESTIGFKLPNHRAAKRLWK [EPB41L3]	3.17 ± 0.39	3.27 ± 0.61
EFKQNIENVSVEMLLRKFAESKGT [FCHO1]	2.84 ± 0.27	3.02 ± 0.32
EFPYRMNHILECEFYLLELMDCCL [CCNC]	2.68 ± 0.31	2.84 ± 0.6
EGASSQIGRAAGTGFTVNVAWNGP [HDAC6]	3.13 ± 0.34	3.38 ± 0.29
EGSGHSTGEDSAFQEPDSPLPPAR [WEE1]	5.48 ± 0.14	5.52 ± 0.13
EGTFRPERLLAVAERYGLSGSDVL [RAD51]	3.23 ± 0.18	3.45 ± 0.11
EGTSSIVMEIQKQIEKKEKKLHKI [TAF7L]	4.18 ± 0.044	4.76 ± 0.15
EGYTSFWNDCISSGLRGGILIELA [GOLPH3L]	3.14 ± 0.74	2.49 ± 0.52
EHLDNLRLNLTNTKQNFFSQTPIL [INTS3]	2.35 ± 0.28	2.48 ± 0.32
EHRHAAAALAAMNGRKIMGKEVKV [TIA1]	3.88 ± 0.23	3.85 ± 0.27
EIRKKVLKIYNKREEDFPSLREYN [MNAT1]	2.45 ± 0.43	2.64 ± 0.51
EKGETMEVIEKPENDPEWWKCKNA [NCK2]	5.36 ± 0.32	5.486 ± 0.04
EKIDKLEQDMERRKADFKAGKALV [ZC3H15]	4.74 ± 0.3	4.67 ± 0.23
EKPPSGTKEKKHQCDHCERCFYTR [PLAGL1]	3.87 ± 0.26	4.3 ± 0.62
EKSIEQTQIKGLKNKPKKMGHIKP [PHTF1]	3.93 ± 0.24	4.21 ± 0.25
EKSQLIMQAEAEAASVRMRGEAEA [FLOT1]	5.04 ± 0.12	4.7 ± 0.26
EKSTVVEGGEVRFNGKGKKIRKPR [DLX1]	4.77 ± 0.28	5.06 ± 0.33
ELFIITQLQSMPSRELASMNLDIV [RHOBTB3]	2.31 ± 0.85	3.25 ± 0.55
ELFQLQTYSLPPFLKAVLRQERVS [CDS1]	1.99 ± 0.28	1.97 ± 0.37
ELHIHRLRYLSSIWNILDLVVILL [PKD2L1]	2.28 ± 0.33	2.54 ± 0.28
ELIGACEFMKDRLYFATLRNRPKS [CDC14A]	2.1 ± 0.5	2.24 ± 0.19
ELPDPLGGLLDEAMLDEISLMDLA [NFE2L1]	4.26 ± 0.54	4.55 ± 0.23

Sequence	protein stability index (treatment: DMSO)	protein stability index (treatment: MLN4924 1 uM, 8 h)
ELPTRIHEEVYFEPSSSKDSDENS [MIA2]	5.34 ± 0.14	4.79 ± 0.58
ELQGLPELHEECEGNHPSARKLTA [NET1]	4.87 ± 0.21	4.56 ± 0.41
ELRLVFGPLGDQLHAQLRDLTSSS [ELF3]	2.17 ± 0.25	2.25 ± 0.29
ELRRQAPPPPPPSRGGPPPPPPPP [WASL]	4.49 ± 0.44	4.64 ± 0.09
ELSEVLENQSSQAELKEAVEEPSS [CHGA]	5.78 ± 0.21	5.67 ± 0.34
ELTLARTDLEMQIEGLKEELAYLR [KRT16]	2.95 ± 0.61	2.79 ± 0.44
EMSKDANFGLRLVVQRCSGQKWMI [GALNT9]	2.2 ± 0.65	2.85 ± 1
EMTPEKFSVLMEKLCKKGLAATTS [FANCE]	2.75 ± 0.57	2.88 ± 0.36
ENHEIYMKDSMSAAEVGTGQYATT [EPB41L3]	4.79 ± 0.22	4.83 ± 0.3
EPEEPSEIPERRDSGVGASLTRSN [DLC1]	5.51 ± 0.31	5.46 ± 0.33
EPGPAGPPPPPSPSSLGPLLPLQR [BTBD1]	4.75 ± 0.24	4.76 ± 0.52
EPITGWRKTVCHNGVLGLSRLLFF [LPCAT4]	2.57 ± 0.71	2.2 ± 0.37
EPLFEAGDATLASDLQDWASVGAF [FOXJ1]	3.85 ± 0.14	3.92 ± 0.4
EPLVLYNQNLSNRPSFNRTPIPWL [MYOZ1]	2.39 ± 0.4	2.44 ± 0.17
EPQTEHQQESESEIDSVPKTQSEL [MIA2]	5.46 ± 0.13	5.59 ± 0.21
EPQWFYEETESSDDVEVLTLKKFK [C8orf76]	4.66 ± 0.094	4.74 ± 0.15
ESEGSESSGRSCRNERSIQEKLQV [SMG5]	4.82 ± 0.12	4.75 ± 0.27
ESSVPVTPSVPPPASQHSTPAGLP [FBF1]	5.04 ± 0.18	5.19 ± 0.17
ETAVEGDPSGVSGATVGRKSRRSR [C18orf25]	5.484 ± 0.04	5.5 ± 0.25
ETEARYSSQLAQMQCLISNVEAQL [KRT36]	3.26 ± 0.31	3.2 ± 0.34
ETLPELKDDKDFTGTVHRIDNTTV [KCNA1]	5.12 ± 0.24	5.17 ± 0.072
ETRVWHRRDGKWQNVHFHRSGSPT [CAMK2D]	3.74 ± 0.35	3.71 ± 0.17

Sequence	protein stability index (treatment: DMSO)	protein stability index (treatment: MLN4924 1 uM, 8 h)
EVEKRGINGSEGDGAEIAEKFVFF [DYNC2LI1]	3.8 ± 0.33	4.41 ± 0.34
EVLRRLTSSVSCALDEAAAALTRM [ANKRD17]	2.3 ± 0.53	2.1 ± 0.3
EVLRSEAGIELIIEDDIRPEKQKR [MYBL2]	4.21 ± 0.24	4.31 ± 0.34
EVVMNSQQTPVGTPKDKRVSNTPL [PALM]	3.44 ± 0.2	3.61 ± 0.2
EWNQKRARKAMRNGISPIIIDNTN [N4BP2L1]	2.65 ± 0.16	3.02 ± 0.55
EYQLFEELGKGAFSVVRRCMKIPT [CAMK2D]	2.07 ± 0.27	2.2 ± 0.54
FDLAKGNAGKVNLPKELPADAVNL [PLAGL1]	4.41 ± 0.21	4.5 ± 0.29
FDPDAKGLSDPGKIKRLRSQVQVS [HNF4A]	3.84 ± 0.18	4.06 ± 0.28
FEDLNKRKDTKEIYTHFTCATDTK [GNAI1]	4.57 ± 0.16	4.41 ± 0.42
FEEFVHYLQDHEKKLRLVFKSLDK [SLC25A25]	2.18 ± 0.27	2.51 ± 0.31
FFRMFDRNTKRDVTLEASRENSKP [PPP2R2B]	3.45 ± 0.14	3.82 ± 0.23
FGAAYVLEQASSHIGNSTQATVRD [ATL3]	3.06 ± 0.28	3.72 ± 0.33
FGLTYRDAENQKNWLDPAKEIKKQ [EPB41L3]	3.68 ± 0.082	4.15 ± 0.089
FGTIISGIQLLIVEYKDIASIHWD [SLC35F2]	3.15 ± 0.29	3 ± 0.34
FHNLRNTLDGYGIHPKSIDLDNYF [NFE2L1]	2.31 ± 0.44	2.07 ± 0.15
FKHTLSISRALLSDVVPEKERPLV [MFSD9]	3.04 ± 0.12	3.24 ± 0.21
FLAAEQDIREEIRKVVQSLEQTAR [TSN]	2.57 ± 0.45	3.25 ± 0.64
FLFNSELLSDVRFVLGKGRGAAAA [BTBD1]	2.12 ± 0.33	2.33 ± 0.34
FLMLINLGLGSMIGTMAGITTPII [SLC6A17]	3.1 ± 0.31	3.03 ± 0.76
FLQEEAIDRNYVPGKSLAVSCPGW [SNX12]	2.73 ± 0.3	3.2 ± 0.2
FMLMLLVLGIQVKCFHEIITIGYR [CDS1]	3.31 ± 0.45	3.3 ± 0.41
